Reference: PMC7708983, “A combined NMR and EPR investigation on the effect of the disordered RGG regions in the structure and the activity of the RRM domain of FUS”

Target: FUS165-422 (RGG1-RRM-RGG2) (UniProt P35637 165-422)
Test: NMR 1H-15N HSQC chemical shift changes; 1:1 molar ratio; largest shifts near residues 286, 326, 369; 20 mM MES pH 6.5, 150 mM NaCl, RNase free; CW-EPR at room temperature; NMR temperature not given in the material
Details: protein: recombinant; tags: His-MBP tag removed by TEV; hairpin

Chain of FUS165-422 (RGG1-RRM-RGG2) (P35637 165-422): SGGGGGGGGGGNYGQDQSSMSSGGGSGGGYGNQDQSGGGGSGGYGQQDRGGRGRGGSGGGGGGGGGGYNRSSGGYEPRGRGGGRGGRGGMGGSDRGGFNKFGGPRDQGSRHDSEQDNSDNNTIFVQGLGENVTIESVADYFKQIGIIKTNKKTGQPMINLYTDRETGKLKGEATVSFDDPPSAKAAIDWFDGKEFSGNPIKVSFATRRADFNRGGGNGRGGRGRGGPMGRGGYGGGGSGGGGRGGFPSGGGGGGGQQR

B1: hnRNPA2/B1 stem-loop RNA (structured_RNA)
RNA: GGCAGAUUACAAUUCUAUUUGCC
B1: binds.
